Measurements taken from US8043804 (TRUSTEES OF COLUMBIA UNIVERSITY IN THE CITY OF NEW YORK, dated 2011).

T1: SIRT1 (Silencing mating type information regulator 2 homolog) (human, UniProt Q96EB6 2-747)
T1 construct: Endogenous protein of HeLa and U2OS cells, or expressed from a vector without a stated tag in H1299 cells; also called endogenous SIRT1; Sir2
T1 sequence (looked up): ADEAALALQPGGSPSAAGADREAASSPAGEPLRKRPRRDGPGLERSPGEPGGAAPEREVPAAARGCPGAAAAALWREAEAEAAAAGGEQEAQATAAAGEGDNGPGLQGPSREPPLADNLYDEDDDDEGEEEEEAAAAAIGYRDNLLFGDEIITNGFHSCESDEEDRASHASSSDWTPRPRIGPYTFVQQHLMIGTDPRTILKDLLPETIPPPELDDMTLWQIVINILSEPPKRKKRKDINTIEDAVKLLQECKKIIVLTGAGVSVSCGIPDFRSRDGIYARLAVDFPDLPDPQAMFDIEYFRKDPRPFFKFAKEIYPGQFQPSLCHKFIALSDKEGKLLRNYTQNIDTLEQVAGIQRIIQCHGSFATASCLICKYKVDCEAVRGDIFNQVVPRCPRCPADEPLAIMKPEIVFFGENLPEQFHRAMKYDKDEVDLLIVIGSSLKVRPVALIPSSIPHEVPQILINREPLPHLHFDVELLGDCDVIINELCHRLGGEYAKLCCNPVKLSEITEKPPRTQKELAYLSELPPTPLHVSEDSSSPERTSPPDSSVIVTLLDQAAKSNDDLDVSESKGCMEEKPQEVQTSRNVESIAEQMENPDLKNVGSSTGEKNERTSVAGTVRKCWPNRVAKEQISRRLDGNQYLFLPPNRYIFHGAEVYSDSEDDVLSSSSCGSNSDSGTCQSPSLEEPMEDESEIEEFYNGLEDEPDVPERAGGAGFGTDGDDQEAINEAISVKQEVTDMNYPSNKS

B1: Flag-SIRT7 (enzyme, human, UniProt Q9NRC8 1-400, looked up)
chain: MAAGGLSRSERKAAERVRRLREEQQRERLRQVSRILRKAAAERSAEEGRLLAESADLVTELQGRSRRREGLKRRQEEVCDDPEELRGKVRELASAVRNAKYLVVYTGAGISTAASIPDYRGPNGVWTLLQKGRSVSAADLSEAEPTLTHMSITRLHEQKLVQHVVSQNCDGLHLRSGLPRTAISELHGNMYIEVCTSCVPNREYVRVFDVTERTALHRHQTGRTCHKCGTQLRDTIVHFGERGTLGQPLNWEAATEAASRADTILCLGSSLKVLKKYPRLWCMTKPPSRRPKLYIVNLQWTPKDDWAALKLHGKCDDVMRLLMAELGLEIPAYSRWQDPIFSLATPLRAGEEGSHSRKSLCRSREEAPPGDRGAPLSSAPILGGWFGRGCTKRTKRKKVT
notes: not shown: Flag tag
B2: GST-SIRT1-NT (other, human, UniProt Q96EB6 1-210, looked up)
chain: MADEAALALQPGGSPSAAGADREAASSPAGEPLRKRPRRDGPGLERSPGEPGGAAPEREVPAAARGCPGAAAAALWREAEAEAAAAGGEQEAQATAAAGEGDNGPGLQGPSREPPLADNLYDEDDDDEGEEEEEAAAAAIGYRDNLLFGDEIITNGFHSCESDEEDRASHASSSDWTPRPRIGPYTFVQQHLMIGTDPRTILKDLLPETI
notes: domain: N-terminal; also called N-terminus of SIRT1; N-terminal domain of SIRT1; not shown: glutathione S-transferase (GST) fusion partner
B3: Flag-SIRT2 (enzyme, human, UniProt Q8IXJ6 1-389, looked up)
chain: MAEPDPSHPLETQAGKVQEAQDSDSDSEGGAAGGEADMDFLRNLFSQTLSLGSQKERLLDELTLEGVARYMQSERCRRVICLVGAGISTSAGIPDFRSPSTGLYDNLEKYHLPYPEAIFEISYFKKHPEPFFALAKELYPGQFKPTICHYFMRLLKDKGLLLRCYTQNIDTLERIAGLEQEDLVEAHGTFYTSHCVSASCRHEYPLSWMKEKIFSEVTPKCEDCQSLVKPDIVFFGESLPARFFSCMQSDFLKVDLLLVMGTSLQVQPFASLISKAPLSTPRLLINKEKAGQSDPFLGMIMGLGGGMDFDSKKAYRDVAWLGECDQGCLALAELLGWKKELEDLVRREHASIDAQSGAGVPNPSTSASPKKSPPPAKDEARTTEREKPQ
notes: also called F-SIRT2; not shown: Flag tag
B4: Flag-SIRT1 (enzyme, human, UniProt Q96EB6 1-747, looked up)
chain: MADEAALALQPGGSPSAAGADREAASSPAGEPLRKRPRRDGPGLERSPGEPGGAAPEREVPAAARGCPGAAAAALWREAEAEAAAAGGEQEAQATAAAGEGDNGPGLQGPSREPPLADNLYDEDDDDEGEEEEEAAAAAIGYRDNLLFGDEIITNGFHSCESDEEDRASHASSSDWTPRPRIGPYTFVQQHLMIGTDPRTILKDLLPETIPPPELDDMTLWQIVINILSEPPKRKKRKDINTIEDAVKLLQECKKIIVLTGAGVSVSCGIPDFRSRDGIYARLAVDFPDLPDPQAMFDIEYFRKDPRPFFKFAKEIYPGQFQPSLCHKFIALSDKEGKLLRNYTQNIDTLEQVAGIQRIIQCHGSFATASCLICKYKVDCEAVRGDIFNQVVPRCPRCPADEPLAIMKPEIVFFGENLPEQFHRAMKYDKDEVDLLIVIGSSLKVRPVALIPSSIPHEVPQILINREPLPHLHFDVELLGDCDVIINELCHRLGGEYAKLCCNPVKLSEITEKPPRTQKELAYLSELPPTPLHVSEDSSSPERTSPPDSSVIVTLLDQAAKSNDDLDVSESKGCMEEKPQEVQTSRNVESIAEQMENPDLKNVGSSTGEKNERTSVAGTVRKCWPNRVAKEQISRRLDGNQYLFLPPNRYIFHGAEVYSDSEDDVLSSSSCGSNSDSGTCQSPSLEEPMEDESEIEEFYNGLEDEPDVPERAGGAGFGTDGDDQEAINEAISVKQEVTDMNYPSNKS
notes: Expressed in 293 or H1299 cells, immunoprecipitated with M2 anti-Flag beads; also called F-SIRT1; Flag-tagged SIRT1; not shown: Flag tag
B5: 14-3-3σ (other, human, UniProt P31947 1-248, looked up)
chain: MERASLIQKAKLAEQAERYEDMAAFMKGAVEKGEELSCEERNLLSVAYKNVVGGQRAAWRVLSSIEQKSNEEGSEEKGPEVREYREKVETELQGVCDTVLGLLDSHLIKEAGDAESRVFYLKMKGDYYRYLAEVATGDDKKRIIDSARSAYQEAMDISKKEMPPTNPIRLGLALNFSVFHYEIANSPEEAISLAKTTFDEAMADLHTLSEDSYKDSTLIMQLLRDNLTLWTADNAGEEGGEAPQEPQS
B6: GST-SIRT1-CT (other, human, UniProt Q96EB6 500-747, looked up)
chain: LCCNPVKLSEITEKPPRTQKELAYLSELPPTPLHVSEDSSSPERTSPPDSSVIVTLLDQAAKSNDDLDVSESKGCMEEKPQEVQTSRNVESIAEQMENPDLKNVGSSTGEKNERTSVAGTVRKCWPNRVAKEQISRRLDGNQYLFLPPNRYIFHGAEVYSDSEDDVLSSSSCGSNSDSGTCQSPSLEEPMEDESEIEEFYNGLEDEPDVPERAGGAGFGTDGDDQEAINEAISVKQEVTDMNYPSNKS
notes: domain: C-terminal; also called C-terminus of SIRT1; C-terminal domain of SIRT1; not shown: glutathione S-transferase (GST) fusion partner

What was measured:
[1] = target: T2, DBC1 (Deleted in Breast Cancer 1) protein (human, UniProt Q8N163 1-923); test: anti-Flag immunoprecipitation from transfected 293 cells, Western blot for endogenous DBC1
T2 construct: Endogenous protein of HeLa, U2OS and 293 cells (about 140 kDa band), or expressed from a vector without a stated tag in H1299 cells; also called endogenous DBC1
T2 sequence (Q8N163 whole entry): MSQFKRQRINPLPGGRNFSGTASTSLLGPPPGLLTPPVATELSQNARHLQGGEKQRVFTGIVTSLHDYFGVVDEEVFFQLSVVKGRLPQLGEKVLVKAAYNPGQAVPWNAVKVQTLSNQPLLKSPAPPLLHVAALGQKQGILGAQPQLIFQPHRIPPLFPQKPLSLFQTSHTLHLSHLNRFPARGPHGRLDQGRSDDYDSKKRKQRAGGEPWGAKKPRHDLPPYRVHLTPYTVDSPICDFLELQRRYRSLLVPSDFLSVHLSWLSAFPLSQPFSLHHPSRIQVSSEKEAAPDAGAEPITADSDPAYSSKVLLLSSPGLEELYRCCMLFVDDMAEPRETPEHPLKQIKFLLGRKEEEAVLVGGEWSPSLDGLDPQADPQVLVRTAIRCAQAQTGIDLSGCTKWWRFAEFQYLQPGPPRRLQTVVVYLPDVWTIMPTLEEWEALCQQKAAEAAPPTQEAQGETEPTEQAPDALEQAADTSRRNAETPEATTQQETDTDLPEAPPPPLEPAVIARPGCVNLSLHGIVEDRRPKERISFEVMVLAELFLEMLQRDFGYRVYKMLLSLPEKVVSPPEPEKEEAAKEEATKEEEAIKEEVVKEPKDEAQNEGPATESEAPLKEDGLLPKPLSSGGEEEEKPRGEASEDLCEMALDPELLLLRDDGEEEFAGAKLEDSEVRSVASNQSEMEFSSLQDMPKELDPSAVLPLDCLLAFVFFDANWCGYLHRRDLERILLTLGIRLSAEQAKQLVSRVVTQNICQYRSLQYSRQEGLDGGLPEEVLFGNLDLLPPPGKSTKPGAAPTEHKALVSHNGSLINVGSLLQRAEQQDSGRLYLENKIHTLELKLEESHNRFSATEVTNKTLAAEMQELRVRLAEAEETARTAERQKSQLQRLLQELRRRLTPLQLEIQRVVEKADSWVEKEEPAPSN
Protocol: (§1) Next, whether SIRT1 binds DBC1 in vitro was tested. […] The N-terminus of DBC1 as the SIRT1 binding domain was identified (FIG. 7). Since the enzymatic core sequence represents the most conserved region of mammalian SIRT protein family, whether DBC1 interacts with other members of this family was determined. Flag-tagged derivatives of the seven human SIRT polypeptides (SIRT1-7) were each expressed in 293 cells and extracts of the transfected cells were immunoprecipitated with the α-Flag antibody. […] Although similar expression levels for all seven Flag-SIRT polypeptides were detected, none of the other SIRT proteins (SIRT2, SIRT3, SIRT4, SIRT5, SIRT6 and SIRT7) were able to co-immunoprecipitate DBC1 (lanes 3-8, FIG. 2d).

[2] = target: T3, ^35S-labeled in vitro-translated DBC1 (human, UniProt Q8N163 1-923, labelled by incorporation of ^35S-Methionine); test: GST pull-down, autoradiography
T3 construct: also called ^35S-DBC1; pCIN4-DBC1 product
T3 sequence (Q8N163 whole entry): as above
Protocol: as §1

[3] = target: T2, DBC1 (Deleted in Breast Cancer 1) …; test: M2 immunoprecipitation of Flag-tagged SIRT family members from 293 cells, Western blot (FIG. 2d)
Protocol: as §1

[4] = target: T1, SIRT1 (Silencing mating type …); test: affinity-purified SIRT1 complexes from HeLa extracts, Western blot
Protocol: Figure 1: FIG. 1. Identification of DBC1 as a major component of the SIRT1 complexes in human cells. (a) Colloidal-blue staining of affinity-purified SIRT1 complexes from HeLa extracts with the α-SIRT1 antibody column (lane 2) and a control elute from the same extract with a control antibody column (lane 3). Specific SIRT1 interacting proteins were analyzed by mass spectrometry. (b) Western Blot of input (lane 1), control IP (lane 2) and α-SIRT1 antibody IP (lane 3) for the known SIRT1 interacting protein 14-3-3σ (lower panel) and SIRT1 (upper panel) to verify specificity of the analyzed SIRT1 complex. (c) Schematic representation of the DBC1 protein.

Binder	binding result [1]	binding result [2]	further results
B1	no binding		
B2		no binding	
B3	no binding		
B4			binding result [3]: binds
B5			binding result [4]: binds
B6		no binding	
